Data on 1 molecule can be found in US9994644B2, “mAB 2 anti-Met antibody” (Agency for Science, Technology and Research, priority 2013, dated 2018).

Entries after “also recorded” stand apart in the source; their conditions may differ.

Assay [1] has as its target T1, c-Met α-chain peptides (Homo sapiens, UniProt P08581).
T1 construct: consecutive overlapping peptides that span the entire c-Met α-chain; purchased Mimotopes (Australia); host or cells: chemical synthesis
The experiment in a line: Pepscan ELISA-based epitope mapping. To be noted: absorbance at 450 nm. The class given is binding. Further details: mAb 2 binding to peptide O27: dose or concentration left out as unconfirmed. The procedure:
(§1) Identifying the region of c-Met bound by the antibody is important in determining whether the antibody might be able to block c-Met from binding to its ligand, HGF. Using an ELISA-based assay (Pepscan), synthesised peptides were added to strepatvidin-coated plates and antibody binding to their respective epitopes was determined colorimetrically. The peptides were consecutive overlapping peptides that span the entire c-Met α-chain.
(§2) Peptides that were linked to biotin by an SGSG linker sequence at the N-terminus were synthesised by Mimotopes (Australia). Peptides for Pepscan: Peptides that span the entire α-chain of c-Met were synthesised. A total of fifty-five peptides with consecutive, overlapping sequences were synthesised. […]
(§3) Variations of peptides O28 and O29, where each amino acid residue was sequentially substituted for an alanine residue, were synthesised. […] Colour change was monitored by eye and the reaction was stopped by adding 100 mM sulphuric acid. Absorbance was read at 450 nm in a microplate reader (SPECTRAmax PLUS^384, Molecular Device, U.S.A.). […] Computer imaging of the epitopes were analysed by PyMol (DeLano Scientific LLC, U.S.A.) software.
(§4) Pepscan analysis was used to determine the region of c-Met α-chain bound by mAb 2. […] Binding of the antibody was detected by colorimetric assay and analysed by absorbance reading at […].
Background: An ELISA detects its analyte on a solid surface through an enzyme-linked reagent.

For assay [2], the system named is c-Met α-chain peptides. The assay can be described thus: Pepscan ELISA-based epitope mapping. Type of assay: binding, human. Also on record: mAb 2 binding to peptide O27: dose or concentration left out as unconfirmed. The conditions noted are these: absorbance at 450 nm. The procedure:
as §1, §2, §3, §4

In assay [3] the target is T2, native c-Met on live SNU-5 cells (Homo sapiens, UniProt P08581).
T2 construct: native c-Met expressed on the cell surface of SNU-5 cells; host or cells: SNU-5
T2 sequence (P08581 25-1390): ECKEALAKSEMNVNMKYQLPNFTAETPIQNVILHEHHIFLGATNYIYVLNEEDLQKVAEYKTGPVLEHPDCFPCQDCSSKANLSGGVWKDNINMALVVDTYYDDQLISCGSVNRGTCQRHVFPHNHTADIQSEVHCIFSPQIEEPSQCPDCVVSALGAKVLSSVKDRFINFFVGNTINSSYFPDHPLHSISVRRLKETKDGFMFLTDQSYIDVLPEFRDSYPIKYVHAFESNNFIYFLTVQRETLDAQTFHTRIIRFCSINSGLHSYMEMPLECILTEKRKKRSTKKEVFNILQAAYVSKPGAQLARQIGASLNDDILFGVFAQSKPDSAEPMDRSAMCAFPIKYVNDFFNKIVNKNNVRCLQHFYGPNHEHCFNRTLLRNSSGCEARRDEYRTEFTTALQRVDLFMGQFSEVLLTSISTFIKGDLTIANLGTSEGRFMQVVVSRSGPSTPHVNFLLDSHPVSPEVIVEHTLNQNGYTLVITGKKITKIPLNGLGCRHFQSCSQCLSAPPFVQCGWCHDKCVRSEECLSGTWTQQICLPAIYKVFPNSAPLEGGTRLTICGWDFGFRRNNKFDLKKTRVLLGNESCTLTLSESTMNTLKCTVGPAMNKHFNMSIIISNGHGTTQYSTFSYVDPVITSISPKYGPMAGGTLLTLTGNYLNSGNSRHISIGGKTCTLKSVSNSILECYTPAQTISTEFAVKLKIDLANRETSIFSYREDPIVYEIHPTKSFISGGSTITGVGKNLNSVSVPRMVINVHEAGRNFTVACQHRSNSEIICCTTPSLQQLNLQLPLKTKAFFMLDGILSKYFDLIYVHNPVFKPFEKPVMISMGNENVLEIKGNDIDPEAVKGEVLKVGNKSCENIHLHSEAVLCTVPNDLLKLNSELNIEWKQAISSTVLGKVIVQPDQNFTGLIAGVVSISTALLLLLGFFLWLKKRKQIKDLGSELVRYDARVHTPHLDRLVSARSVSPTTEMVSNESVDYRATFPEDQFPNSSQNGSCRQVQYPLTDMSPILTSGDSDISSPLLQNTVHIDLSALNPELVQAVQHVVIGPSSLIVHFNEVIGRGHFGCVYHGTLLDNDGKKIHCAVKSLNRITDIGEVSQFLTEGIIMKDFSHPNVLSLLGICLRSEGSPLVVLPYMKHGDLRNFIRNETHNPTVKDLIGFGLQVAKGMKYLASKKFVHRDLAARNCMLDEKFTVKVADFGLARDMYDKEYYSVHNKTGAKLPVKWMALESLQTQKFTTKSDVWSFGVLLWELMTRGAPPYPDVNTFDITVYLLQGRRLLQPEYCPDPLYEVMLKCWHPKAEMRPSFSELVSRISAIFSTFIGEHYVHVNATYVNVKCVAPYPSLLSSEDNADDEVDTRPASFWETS
The experiment in a line: Flow cytometry of antibody binding to live SNU-5 cells. The conditions noted are these: 1 μg/mL mAb, FITC secondary antibody. The method, then: Flow cytometry was used to determine if our monoclonal antibodies could bind to native c-Met on live cells. SNU-5 cells were incubated with 1 μg/mL of monoclonal antibody. Binding of anti-α-chain c-Met monoclonal antibodies to native c-Met expressed on the cell surface of SNU-5 cells was detected using anti-mouse secondary antibody conjugated with FITC dye. T47D, a human breast cancer cell line expressing low levels of c-Met, was used in this assay to determine if the antibodies bind non-specifically to the cell surface.
SNU-5 cells (1×10^6 cells) were washed once in cold PBS before blocking in 1% BSA/PBS. Cells were washed twice before incubating with anti-α-chain c-Met monoclonal antibodies. 1 μg/mL anti-α-chain monoclonal antibodies were used. Cells were incubated with goat anti-mouse IgG FITC-conjugated secondary antibodies (Invitrogen) and finally resuspended in 1% BSA/PBS. Flow cytometry was performed using Becton Dickinson (U.S.A.) FACScan. Cell Quest (Becton Dickinson) and FlowJo (Tree Star Inc., U.S.A.) software was used for data analysis.
A general note: A flow cytometer gives signals particle by particle.

Assay [4] relates to SNU-5 cells. The assay can be described thus: Immunofluorescence of antibody internalisation. The class given is cell-based, human. The conditions noted are these: SNU-5, 10 μg/mL mAb. The method, then:
In order to determine if mAb 2 and 13 were internalised into the cell upon antibody binding, SNU-5 cells were incubated with 10 μg/mL of anti-α-chain monoclonal antibody. Monoclonal antibody treated cells were fixed and permeablised. Bound and internalised antibody was detected by anti-mouse Alexa Fluor®488-conjugated secondary antibody. Antibody localisation was observed by confocal microscopy.
10 μg/mL of anti-α-chain monoclonal antibody were incubated with live SNU-5 cells for 1 hr at 4° C. or 37° C. Antibody-treated cells were washed once with PBS and deposited onto polylysine-coated slides (Thermo Scientific, #5991056) using the Thermo Shandon Cytospin 3 Cytofuge (Thermo Scientific) at 800 rpm for 5 mins and fixed immediately in 4% paraformaldehyde. Cells were then blocked and permeablised in PBS containing 0.4% Triton X-100 and 5% BSA. Bound anti-α-chain c-Met antibodies were detected using anti-mouse Alexa Fluor®488-conjugated secondary antibody. Phallodin was added together with the secondary antibodies. Cells were washed before staining with 4′,6′-diamidino-2-phenylindole (DAPI) and mounted with Hydromount (National Diagnostics, U.S.A.) containing 2.5% DABCO (1,4-Diazabicyclo-[2.2.2]octane) (Sigma-Aldrich) as an anti-bleaching agent Immunofluorescence was observed using Nikon Eclipse E600 microscope.

Assay [5] addresses T2, native c-Met on live SNU-5 cells. The assay can be described thus: Temperature sensitivity of antibody binding by flow cytometry. To be noted: live SNU-5, 10 μg/mL mAb, 1 hr. The procedure: To determine if temperature affects the binding affinity of anti-α-chain monoclonal antibody to native c-Met, mAb 2, 13, 11 and 18 were incubated with live SNU-5 cells at 4° C. or 37° C. Binding of monoclonal antibody to native c-Met expressed on the cell surface of live SNU-5 cells was detected using anti-mouse secondary antibody conjugated with Alexa Fluor®488 dye and analysed by flow cytometry. Antibody binding, which correlates with fluorescence intensity, was compared at the different temperatures. […] It is plausible that the reduction of antibody binding is due to the unavailability of antibody's epitope on native c-Met expressed on live SNU-5 cells. c-Met is a dynamic protein at normal physiological temperature and becomes rigid at low temperature, causing certain epitopes to be obscured.
10 μg/mL of anti-α-chain monoclonal antibody were incubated with live SNU-5 cells for 1 hr at 4° C. or 37° C. Cells were harvested and washed once in cold PBS. Antibody binding to live cells was determined by Alexa Fluor®488-conjugated anti-mouse secondary antibodies (Invitrogen #A11029). Cells were resuspended in 1% BSA/PBS and analysed by flow cytometry.

For assay [6], the system named is SNU-5 cells. The experiment in a line: Annexin V staining (cell death). Type of assay: cell-based, human.

B1: mAb 2: murine bivalent anti-α-chain c-Met monoclonal antibody, IgG1, kappa; CDRs SEQ ID NO: 2-7; epitope IEE and CPDC (antibody, listed as Homo sapiens)
heavy: QVQLKESGGGLVQPGGSLTLSCATSGFTFTDHYMSWVRQPPGKALEWLAFIRNKAKGYTTEYNASVRGRFTISRDNSQNIVYLQMNTLRTEDSATYYCARDGVGIAYWGQTLVTVSAAKTTPPSVYPLAP
light: SIVMTQSPLSLPVSLGDQASISCRSSQSLENINGNTYKNWYFQKPGQSPQLLIYRVSNRVSGVLDRFSGSGSGTDFTLKITRVEAEDLGVYFCLQVTHVPWTFGGGTKLEIKRADAAPTKSIS
Consider B1, for which the “mAb 2 binding to peptide O27” value in assay [1] is listed as “does not bind”. Besides, the “mAb 2 binding to peptides O28 and O29” value in assay [2] is on record as “equal affinity; also recorded: no binding preference”. Besides, in assay [3], the “binding to native c-Met (fluorescence intensity)” value is “strongest fluorescence intensity; also recorded: strongest binding; also recorded: highest fluorescence staining; also recorded: high affinity and specificity; also recorded: strongly”. For the same molecule, the “internalisation into the cell” value in assay [4] was “internalised upon binding to c-Met; also recorded: internalised into the tumour cell”. Also, in assay [4] (1 hr, 4° C.), the “antibody localisation at 4° C.” value is “localised on the cell membrane with diffused cytoplasmic staining”. Further, in assay [4] (1 hr, 37° C.), the “antibody localisation at 37° C.” value is listed as “increase staining was observed in the cytoplasm”. Further, the “change of antibody binding between 4° C. and 37° C.” value in assay [5] is reported as “most drastic peak shift; also recorded: temperature sensitive”. Further, in assay [6], the “cell death (annexin V staining)” value is reported as “do not cause cell death”.
